Assay results as given in CN116472284A.

Target: SARS-CoV-2 spike on ZsGreen SARS-CoV-2-pseudotyped lentivirus (SARS-CoV-2) (UniProt P0DTC2)
Experiment: cell-based or functional assay

Nb6-tri (trivalent Nb6 with two 20 amino acid linkers) (VHH)
IC50, inhibition of SARS-CoV-2 pseudotyped lentivirus infection: 1.2 nM
fold gain of inhibitory activity against monovalent Nb6, pseudovirus: 2000 fold
